Test results: patent US20100184663A1 (UNIVERSITY OF UTAH RESEARCH FOUNDATION, published 2010)
Bridge positions count the residues as written; N and C are the ends. Square brackets hold non-standard residues; d marks the D form. Ends that are not written are not given here. I, II: the chains in the order shown.

B1: C0C(PIE7-GK)3 (peptide)
peptide 1: G[dA][dC][dD][dY][dP][dE][dW][dQ][dW][dL][dC][dA][dA]G[dK]
peptide 2: G[dA][dC][dD][dY][dP][dE][dW][dQ][dW][dL][dC][dA][dA]G[dK][dK]
modifications: disulfide I:3-I:12, II:3-II:12 (inferred); also: trimer: two chain 1 copies joined via C-terminal Lys by zero length spacers to the C-terminal Lys of central chain 2
B2: N0N(PIE7)2 (peptide)
peptide: [dK]G[dA][dC][dD][dY][dP][dE][dW][dQ][dW][dL][dC][dA][dA]
modifications: disulfide 4-13 (inferred); also: dimer joined N- to N-terminus by zero length spacer
B3: PIE7-GK-PEG4 (peptide)
peptide: Ac-G[dA][dC][dD][dY][dP][dE][dW][dQ][dW][dL][dC][dA][dA]G[dK]-NH2
modifications: disulfide 3-12 (inferred); also: PEG4 attached at the C-terminus, order with amide not given here
B4: C5C(PIE7-GK)2 (peptide)
peptide: G[dA][dC][dD][dY][dP][dE][dW][dQ][dW][dL][dC][dA][dA]G[dK]
modifications: disulfide 3-12 (inferred); also: dimer joined C- to C-terminus by PEG5 spacer on C-terminal Lys
B5: PEG5-(PIE13)2 (peptide)
peptide: [dH][dP][dC][dD][dY][dP][dE][dW][dQ][dW][dL][dC][dK][dL]G[dK]
modifications: disulfide 3-12 (inferred); also: dimer crosslinked via internal Lys with PEG5 linker
B6: N0C(PIE7)2 (peptide)
peptide: [dK]G[dA][dC][dD][dY][dP][dE][dW][dQ][dW][dL][dC][dA][dA]
modifications: disulfide 4-13 (inferred); also: dimer joined N- to C-terminus by zero length spacer
B7: C9C(PIE7-GK)2 (peptide)
peptide: G[dA][dC][dD][dY][dP][dE][dW][dQ][dW][dL][dC][dA][dA]G[dK]
modifications: disulfide 3-12 (inferred); also: dimer joined C- to C-terminus by PEG9 spacer on C-terminal Lys

Tests used:
[1] = biological target: HIV-1 gp41 (HXB2 strain) (HIV-1 HXB2, UniProt P04578 512-856); assay: cell-based or functional assay
[2] = biological target: HIV-1 gp41 (JRFL strain) (HIV-1 JRFL); assay: cell-based or functional assay

Binder | IC50 (HXB2), pseudovirion entry [1] [nM] | IC50 (JRFL), pseudovirion entry [2] [nM]
[dK]G[dA][dC][dD][dY][dP][dE][dW][dQ][dW][dL][dC][dA][dA] (disulfide 4-13 (inferred); also: dimer joined N- to N-terminus by PEG5 spacer) [N5N(PIE7)2] | 1.13 | 1410
Ac-[dH][dP][dC][dD][dY][dP][dE][dW][dQ][dW][dL][dC][dE][dL]G[dK]-NH2 (disulfide 3-12 (inferred)) [PIE12] | – | 578
[dH][dP][dC][dD][dY][dP][dE][dW][dQ][dW][dL][dC][dE][dL]G[dK] (disulfide 3-12 (inferred); also: trimer, C-termini joined by PEG5 spacers) [C5C(PIE12)3] | – | 2.77
Ac-G[dA][dC][dD][dY][dP][dE][dW][dQ][dW][dL][dC][dA][dA]G[dK]-NH2 (disulfide 3-12 (inferred)) [PIE7-GK] | 389 | 15800
B1 | 0.117 | 16.1
Ac-[dH][dP][dC][dD][dY][dP][dE][dW][dQ][dW][dL][dC][dK][dL]G[dK]-NH2 (disulfide 3-12 (inferred)) [PIE13] | 41.3 | 1470
B2 | 0.801 | 1090
[dK]G[dA][dC][dD][dY][dP][dE][dW][dQ][dW][dL][dC][dA][dA] (disulfide 4-13 (inferred); also: dimer joined N- to C-terminus by PEG5 spacer) [N5C(PIE7)2] | 0.575 | 300
[dK]G[dA][dC][dD][dY][dP][dE][dW][dQ][dW][dL][dC][dA][dA] (disulfide 4-13 (inferred); also: dimer joined N- to C-terminus by PEG9 spacer) [N9C(PIE7)2] | 0.329 | 313
B3 | 351 | 13100
Ac-[dH][dP][dC][dD][dY][dP][dE][dW][dQ][dW][dL][dC][dR][dL]G[dK]-NH2 (disulfide 3-12 (inferred)) [PIE14] | 33.1 | 1050
[dH][dP][dC][dD][dY][dP][dE][dW][dQ][dW][dL][dC][dE][dL]G[dK] (disulfide 3-12 (inferred); also: dimer joined C- to C-terminus by PEG5 spacer) [C5C(PIE12)2] | – | 14.2
[dK]G[dA][dC][dD][dY][dP][dE][dW][dQ][dW][dL][dC][dA][dA] (disulfide 4-13 (inferred); also: trimer, N-termini joined by PEG9 spacers) [N9N(PIE7)3] | 0.25 | 220
Ac-[dH][dA][dC][dD][dY][dP][dE][dW][dQ][dW][dL][dC][dE][dL]G[dK]-NH2 (disulfide 3-12 (inferred)) [PIE15] | 66.7 | 1450
B4 | 0.355 | 203
Ac-[dK]G[dA][dC][dD][dY][dP][dE][dW][dQ][dW][dL][dC][dA][dA]G[dK]-NH2 (disulfide 4-13 (inferred)) [K-PIE7-GK] | – | 14800
B5 | – | 15.1
B6 | 0.534 | 402
B7 | 0.354 | 215
Ac-G[dA][dC][dD][dY][dP][dE][dW][dQ][dW][dL][dC][dA][dA]G[dK][dK]-NH2 (disulfide 3-12 (inferred)) [PIE7-GKK] | 382 | 19100
